Test results from paper PMC9482650, “Quantitative fragmentomics allow affinity mapping of interactomes” (Nature Communications, 2022).

T1: APBA3_1, O96018
T1 sequence (O96018 389-490, limits assumed, looked up): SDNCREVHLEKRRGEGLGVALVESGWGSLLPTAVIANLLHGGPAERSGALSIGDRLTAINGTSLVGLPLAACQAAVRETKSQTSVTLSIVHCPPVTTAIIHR

T2: SNTA1, Q13424
T2 sequence (Q13424 82-180, limits assumed, looked up): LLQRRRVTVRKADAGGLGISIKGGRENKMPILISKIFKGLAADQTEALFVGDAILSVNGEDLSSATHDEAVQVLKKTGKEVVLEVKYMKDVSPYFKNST

T3: DFNB31_1, Q9P202
T3 sequence (Q9P202 135-233, limits assumed, looked up): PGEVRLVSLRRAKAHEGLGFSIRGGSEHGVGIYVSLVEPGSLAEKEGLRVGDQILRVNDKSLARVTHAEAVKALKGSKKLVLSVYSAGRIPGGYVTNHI

T4: GRIP1_2, Q9Y3R0
T4 sequence (Q9Y3R0 145-248, limits assumed, looked up): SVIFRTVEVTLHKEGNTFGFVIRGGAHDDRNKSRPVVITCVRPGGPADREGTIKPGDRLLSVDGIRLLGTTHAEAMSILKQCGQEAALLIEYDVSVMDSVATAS

T5: MPP6, Q9NZW5
T5 sequence (Q9NZW5 125-219, limits assumed, looked up): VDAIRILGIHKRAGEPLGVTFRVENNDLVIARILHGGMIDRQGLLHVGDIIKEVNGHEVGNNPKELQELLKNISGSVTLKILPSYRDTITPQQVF

T6: NHERF3_1, Q5T2W1
T6 sequence (Q5T2W1 4-100, limits assumed, looked up): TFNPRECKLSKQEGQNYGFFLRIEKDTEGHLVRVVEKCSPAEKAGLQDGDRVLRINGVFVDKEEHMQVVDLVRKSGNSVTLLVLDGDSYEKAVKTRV

T7: PDZD2_2, O15018
T7 sequence (O15018 329-429, limits assumed, looked up): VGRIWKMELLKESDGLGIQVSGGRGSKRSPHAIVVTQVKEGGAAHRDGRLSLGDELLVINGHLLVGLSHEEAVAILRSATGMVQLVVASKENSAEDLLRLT

T8: LRRC7, Q96NW7
T8 sequence (Q96NW7 1440-1537, limits assumed, looked up): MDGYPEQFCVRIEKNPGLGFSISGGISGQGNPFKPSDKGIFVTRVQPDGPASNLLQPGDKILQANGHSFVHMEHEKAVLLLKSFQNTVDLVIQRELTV

T9: HTRA3, P83110
T9 sequence (P83110 354-453, limits assumed, looked up): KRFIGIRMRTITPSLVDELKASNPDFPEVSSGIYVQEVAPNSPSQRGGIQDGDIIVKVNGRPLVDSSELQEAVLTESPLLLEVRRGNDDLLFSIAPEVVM

T10: SIPA1L2, Q9P2F8
T10 sequence (Q9P2F8 945-1036, limits assumed, looked up): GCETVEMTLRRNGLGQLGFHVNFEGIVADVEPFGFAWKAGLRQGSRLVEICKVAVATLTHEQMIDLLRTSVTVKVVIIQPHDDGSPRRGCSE

T11: SNTG2, Q9NY99
T11 sequence (Q9NY99 68-166, limits assumed, looked up): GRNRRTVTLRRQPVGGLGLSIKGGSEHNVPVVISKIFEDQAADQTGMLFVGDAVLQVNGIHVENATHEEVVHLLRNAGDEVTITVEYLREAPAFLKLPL

T12: APBA2_2, Q99767
T12 sequence (Q99767 654-744, limits assumed, looked up): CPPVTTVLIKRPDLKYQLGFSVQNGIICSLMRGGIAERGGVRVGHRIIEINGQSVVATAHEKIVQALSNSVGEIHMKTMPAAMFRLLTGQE

T13: PTPN13_1, Q12923
T13 sequence (Q12923 1088-1188, limits assumed, looked up): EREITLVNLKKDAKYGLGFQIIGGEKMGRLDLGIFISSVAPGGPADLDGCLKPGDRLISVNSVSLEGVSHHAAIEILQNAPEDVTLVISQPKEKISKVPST


How the values were obtained:
Assay in all cases: holdup assay
Set-up in all cases: key: below the threshold = too weak to quantify, mostly under pKd 3.1 to 4
Details in all cases: plain residues with an end cap or a label only (N-terminal biotin on a linker: ado-ado)
Inadl_5, Q8NI35 = target: Inadl_5, Q8NI35
APBA3_1, O96018 = target: T1, APBA3_1, O96018
LNX1_3, Q8TBB1 = target: LNX1_3, Q8TBB1
SNTA1, Q13424 = target: T2, SNTA1, Q13424
DFNB31_1, Q9P202 = target: T3, DFNB31_1, Q9P202
GRIP1_2, Q9Y3R0 = target: T4, GRIP1_2, Q9Y3R0
SNX27, Q96L92 = target: SNX27, Q96L92
Inadl_8, Q8NI35 = target: Inadl_8, Q8NI35
DLG1_2, Q12959 = target: DLG1_2, Q12959
MPP6, Q9NZW5 = target: T5, MPP6, Q9NZW5
GRASP, Q7Z6J2 = target: GRASP, Q7Z6J2
NHERF3_1, Q5T2W1 = target: T6, NHERF3_1, Q5T2W1
PDZD2_2, O15018 = target: T7, PDZD2_2, O15018
LRRC7, Q96NW7 = target: T8, LRRC7, Q96NW7
NHERF4_2, Q86UT5 = target: NHERF4_2, Q86UT5
FRMPD2_2, Q68DX3 = target: FRMPD2_2, Q68DX3
HTRA3, P83110 = target: T9, HTRA3, P83110
SIPA1L2, Q9P2F8 = target: T10, SIPA1L2, Q9P2F8
SNTG2, Q9NY99 = target: T11, SNTG2, Q9NY99
APBA2_2, Q99767 = target: T12, APBA2_2, Q99767
MAGI2_4, Q86UL8 = target: MAGI2_4, Q86UL8
DLG4_3, P78352 = target: DLG4_3, P78352
PTPN13_1, Q12923 = target: T13, PTPN13_1, Q12923
FRMPD2_3, Q68DX3 = target: FRMPD2_3, Q68DX3
MAGI2_6, Q86UL8 = target: MAGI2_6, Q86UL8
MAGI2_6, Q86UL8, sequence (Q86UL8 1141-1229): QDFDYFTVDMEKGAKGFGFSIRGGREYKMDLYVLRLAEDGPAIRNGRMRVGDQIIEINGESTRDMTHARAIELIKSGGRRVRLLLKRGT

LNX1_3, Q8TBB1, sequence (Q8TBB1 500-596): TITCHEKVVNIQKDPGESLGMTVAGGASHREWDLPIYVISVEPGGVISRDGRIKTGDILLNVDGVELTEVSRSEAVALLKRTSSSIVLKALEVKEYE
GRASP, Q7Z6J2, sequence (Q7Z6J2 96-193): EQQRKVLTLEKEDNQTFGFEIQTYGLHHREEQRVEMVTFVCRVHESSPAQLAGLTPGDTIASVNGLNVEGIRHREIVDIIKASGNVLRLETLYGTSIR
FRMPD2_2, Q68DX3, sequence (Q68DX3 944-1038): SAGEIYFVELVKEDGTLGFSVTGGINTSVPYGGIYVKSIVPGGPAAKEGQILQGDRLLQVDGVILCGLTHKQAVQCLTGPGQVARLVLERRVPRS
NHERF4_2, Q86UT5, sequence (Q86UT5 220-308): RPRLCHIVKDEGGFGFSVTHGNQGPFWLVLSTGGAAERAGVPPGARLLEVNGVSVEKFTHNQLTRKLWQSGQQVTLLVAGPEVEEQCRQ
Inadl_8, Q8NI35, sequence (Q8NI35 1425-1530): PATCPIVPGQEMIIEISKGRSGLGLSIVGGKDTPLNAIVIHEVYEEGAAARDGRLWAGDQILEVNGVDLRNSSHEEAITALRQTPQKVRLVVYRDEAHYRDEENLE
MAGI2_4, Q86UL8, sequence (Q86UL8 772-865): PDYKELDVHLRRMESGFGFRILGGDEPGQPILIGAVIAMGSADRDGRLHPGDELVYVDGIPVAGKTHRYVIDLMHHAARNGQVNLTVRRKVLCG
FRMPD2_3, Q68DX3, sequence (Q68DX3 1073-1166): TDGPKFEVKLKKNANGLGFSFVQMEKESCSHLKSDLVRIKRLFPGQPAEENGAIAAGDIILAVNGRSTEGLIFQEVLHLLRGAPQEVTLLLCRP
Inadl_5, Q8NI35, sequence (Q8NI35 673-780): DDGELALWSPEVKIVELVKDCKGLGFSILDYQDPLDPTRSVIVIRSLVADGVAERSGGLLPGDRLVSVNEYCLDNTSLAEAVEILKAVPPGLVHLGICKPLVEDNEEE
DLG1_2, Q12959, sequence (Q12959 314-412): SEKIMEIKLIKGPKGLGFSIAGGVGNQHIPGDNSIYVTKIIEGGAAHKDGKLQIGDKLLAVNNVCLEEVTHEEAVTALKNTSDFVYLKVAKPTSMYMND
DLG4_3, P78352, sequence (P78352 306-403): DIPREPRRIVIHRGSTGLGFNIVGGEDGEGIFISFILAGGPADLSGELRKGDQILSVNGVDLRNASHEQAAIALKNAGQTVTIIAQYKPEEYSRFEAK

Row | pKd (Inadl_5, Q8NI35) | pKd (APBA3_1, O96018) | pKd (LNX1_3, Q8TBB1) | pKd (SNTA1, Q13424) | pKd (DFNB31_1, Q9P202) | pKd (GRIP1_2, Q9Y3R0) | pKd (SNX27, Q96L92) | pKd (Inadl_8, Q8NI35) | pKd (DLG1_2, Q12959) | pKd (MPP6, Q9NZW5) | pKd (GRASP, Q7Z6J2) | pKd (NHERF3_1, Q5T2W1) | pKd (PDZD2_2, O15018) | pKd (LRRC7, Q96NW7) | pKd (NHERF4_2, Q86UT5) | pKd (FRMPD2_2, Q68DX3) | pKd (HTRA3, P83110) | pKd (SIPA1L2, Q9P2F8) | pKd (SNTG2, Q9NY99) | pKd (APBA2_2, Q99767) | Binder | further results
1 | below the threshold | below the threshold | below the threshold | below the threshold | 3.48 | below the threshold | 5.18 | below the threshold | below the threshold | below the threshold | below the threshold | 5.23 | below the threshold | below the threshold | below the threshold | below the threshold | below the threshold | below the threshold | below the threshold | below the threshold | EKPIDSETKM [SLC1A3, P43003] | pKd (MAGI2_4, Q86UL8): below the threshold; pKd (DLG4_3, P78352): below the threshold; pKd (PTPN13_1, Q12923): below the threshold; pKd (FRMPD2_3, Q68DX3): below the threshold; pKd (MAGI2_6, Q86UL8): below the threshold
2 | below the threshold | below the threshold | below the threshold | below the threshold | below the threshold | below the threshold | 4.2 | below the threshold | below the threshold | below the threshold | below the threshold | below the threshold | 4.13 | below the threshold | below the threshold | below the threshold | below the threshold | below the threshold | below the threshold | below the threshold | DAAHHDESNC [FMNL3, Q8IVF7] | pKd (MAGI2_4, Q86UL8): below the threshold; pKd (DLG4_3, P78352): below the threshold; pKd (PTPN13_1, Q12923): below the threshold; pKd (FRMPD2_3, Q68DX3): below the threshold; pKd (MAGI2_6, Q86UL8): below the threshold
3 | below the threshold | below the threshold | below the threshold | 3.48 | below the threshold | below the threshold | 3.67 | 4.43 | below the threshold | 3.89 | below the threshold | below the threshold | below the threshold | below the threshold | below the threshold | below the threshold | below the threshold | below the threshold | below the threshold | below the threshold | SQDPKKPSRV [CBY2, Q8NA61] | pKd (MAGI2_4, Q86UL8): below the threshold; pKd (DLG4_3, P78352): below the threshold; pKd (PTPN13_1, Q12923): below the threshold; pKd (FRMPD2_3, Q68DX3): below the threshold; pKd (MAGI2_6, Q86UL8): below the threshold
